Results reported in patent publication US11193150B2, “Nepetalactol oxidoreductases, nepetalactol synthases, and microbes capable of producing nepetalactone” (Zymergen Inc., priority 2017, dated 2021).

B1: NcatNOR21: candidate nepetalactol oxidoreductase (NOR) from Nepeta cataria, protein SEQ ID NO: 566 (protein, listed as Nepeta cataria)
chain: MAKSVNAVGWAARDTSGLLSPLKFARPAAGDRDVQFKVLYCGICHSDLHSIKNEWGNTQYPIVPGHEIVGVVTAVGPKATKFKAGDKVGVGCLVNSCRHCDQCAADLENYCPQLVQTYNSVLADGSVTYGGYSDVMTADEDFVIRWPENFPMDKGAPLLCAGVTTYSPLRYYGLDKPGLHIGVVGLGGLGHVAVKFAKAFGMKVTVISTSAGKKKEAIETLGADAFLISRDASEMQAAAGTLDGMIDTVSAQHPLPPLLSLLKPHGKLILVGAPEKPFELPAFPLLMGRKTVAGSVIGGLKETQEMIDFAAKHNLLPEVEMIPMDYVNTAMERLAKADVKYRFVIDVGNTLTKAD
B2: NcatNOR34: candidate nepetalactol oxidoreductase (NOR) from Nepeta cataria, protein SEQ ID NO: 578 (protein, listed as Nepeta cataria)
chain: MAFCRSSLLLRKALGGSRRAAAAATCSSAYACGWQSERGRWYSGGEGTTISAPGYHVNTAPSHMTGAVFWDKDKPITYEEFEMPRPKANEVLIKTKACGACHSDLHVIKGDLKFPCPCILGHEITGEVVEHGPLTETKYIERYPVGSKVIGAFIMPCGSCFYCSRGEDDLCEPYFAYNRAKGTLYDGQTRLFLRGSGKPVHMWSMSGLAEYCVTPVNGLGALPDTLPYAESSVLGCAVFTAYGAIAHAAEVKPGNSVAVIGIGGVGSSCLQIAKAFGASEIIAVDVEDGKLETAKTFGATHIINSRKEDAIAKIKELTDGRGVDIAVEAIGGPKTFAQCVGSVRAGGKAVMIGLSPTGGKGEVEITQLVRRKVKVIGSYGGRAMTDLPKLVELAEQGTFNLEAAVTRRYKFEEVAQAYQDLQNKTIVGRGVIEIM
B3: GAR_NOR15: NOR candidate codon-optimized for S. cerevisiae (SEQ ID NO: 1393), expressed from pESC-URA (protein, listed as Nepeta cataria)
chain: MADKEGEVVCVTGGSGFIGSWLVSLLLRRGYSVRATVKNLGDERETKHLEAIEGADSRLSLFQIDLLDYDSVATAVGDAAGVFHLASPCTIDQVNDPQRELLDPAIKGTLNVLKAAKNLGVRRVVVTSSISAMIASSNSLAETGEDCWIDEDYCRQNGLWYPVSKALAEKAAWKLAEENGLDIVVVNPGMVVGPILPPALNSSMQLMLHVLQGKDFFEGFFMGLVHVKDVALAQILLYENTSASGRHLCVESLSRYDDFAKQMEKLYPEYKLPRFSNNAQHGSLKSDAALKKLRDLGIEFAPLEQIVKDSIESLRSKGYIS
B4: NcatNOR15: candidate nepetalactol oxidoreductase (NOR) from Nepeta cataria, protein SEQ ID NO: 561 (protein, listed as Nepeta cataria)
chain: MAKTPETEHPVKAFGYAATDNSGTFSPFKFSRRATGERDVQFKVLYCGVCHSDLHMVKNEWGVTHYPIVPGHEIVGVATEVGSKVEKVKVGDKVGVGVIVGSCRQCDQCSNDLENYCSKQILTYGAPYLDGTITRGGYSDIMVADEHFIIRWPENFPLDAGAPLLCAGITTYSPLRYFGLDKPGLRVGVNGLGGLGHVAVKFAKAFGTKVTVISSSLRKKKEAVEKLGVDEFLVSTDPEQMQAAIGTLDGIIDTVSAEHSVVSLLSLLKPHGRLIVVGAPEKPHQLPAFPLITGRKSISGSAIGGMKETQEMIDFAAKHNILPDVEVIPIDYINTAMERLLKSDVKYRFVIDVEKSLKA

Columns and labels:
[1] = tested on: nepetalactol; assay: In vitro conversion of nepetalactol to nepetalactone by candidate NORs in clarified cell lysate with NAD+ or NADP+ (GC-MS); type: biochemical; conditions: clarified lysate of E. coli BL21 (DE3) expressing the candidate, 30° C., 2 hours
Protocol: BL21 (DE3) strains were streaked out on LB plates containing kanamycin from glycerol stock and grown overnight at 37° C. A single colony was inoculated into 4 mL of LB medium containing kanamycin in 15 mL disposable culture tubes and incubated overnight at 30° C. with shaking at 250 rpm. 500 μL of the overnight culture was subcultured into 50 mL of LB medium containing kanamycin in a 250 mL baffled flask. The culture was grown at 37° C. and the optical density at 600 nm (OD600) was monitored. When OD600 reached between 0.6-1, the cultures were cooled on ice for 15 minutes. The cultures were then induced with 100 μM of isopropyl β-D-1-thiogalactopyranoside and incubated at 15° C. with shaking at 250 rpm for roughly 20 hours. Cultures were pelleted by centrifugation in 50 mL centrifuge tubes. The supernatant was decanted and the pellets were frozen at −20° C. for later processing.
Pellets were thawed on ice and resuspended with 3 mL of cold lysis buffer: 50 mM sodium phosphate, pH=7.4, 100 mM sodium chloride. All remaining steps were performed either on ice or at 4° C. The cell mixture was transferred to a 15 mL centrifuge tube and disrupted with three rounds of sonication using the Branson Sonifier 450 with a double-level microtip at 70% amplitude. A single round of sonication consisted of 6 cycles of 10 seconds with the sonicator on, and 10 seconds off. Between each round, the cell mixture was allowed to sit on ice for a minute to cool. The lysed cell mixture was transferred to 1.7 mL centrifuge tubes and centrifuged at maximum speed in a microcentrifuge for 20 minutes. The supernatant (clarified cell lysate) was collected in a separate tube and used for in vitro characterization.
The in vitro reactions were setup as follows: 2 μL of 100 mM NAD+ or NADP+ and 10 μL of 100 uM nepetalactol was added to 188 μL of the clarified cell lysate. The reactions were incubated at 30° C. shaking at 200 rpm for 2 hours. […] The organic layer was withdrawn and analyzed with gas chromatography coupled to mass spectrometry (GC-MS). […]

[2] = tested on: nepetalactol; assay: Production of nepetalactone from nepetalactol in Saccharomyces cerevisiae strains expressing NOR candidates from 2μ plasmid pESC-URA; type: cell-based; conditions: 2% galactose, 100 mg/L of nepetalactol fed, 30° C., 24 hours
Protocol: 300 μL of ethyl acetate was added to the cultures. The plates were sealed with a PlateLoc Thermal Microplate Sealer and the plates were shaken for one min at 750 rpm. The plates were centrifuged and the ethyl acetate layer was collected and analyzed by liquid chromatography coupled to mass spectrometry (LC-MS). Target analytes were quantified against authentic standards.
The plasmids were individually transformed into chemically competent Saccharomyces cerevisiae cells as described in EXAMPLE 2. Transformants were selected on SD-URA agar plates. Three to four replicates were picked into SD-URA liquid medium and cultured at 30° C. for one to two days with shaking at 1000 rpm. Cultures were glycerol stocked at a final concentration of 16.6% glycerol and stored at −80° C. until later use.
10 μL of the glycerol stocked strains was inoculated into 300 μL of minimal media lacking uracil, and containing 4% glucose in 96-well plates to produce seed cultures. The plates were incubated at 30° C. at 1000 rpm for 1-2 days. 10 μL of the seed cultures was then inoculated into 300 μL of minimal media lacking uracil, and containing 2% galactose and 100 mg/L of nepetalactol. 30 μL of methyl oleate was next added to the wells. The main culture plates were further incubated at 30° C., 1000 rpm for 24 hours before assays were performed to assess cell growth and titer. […]

Row | Molecule | oxidation of nepetalactol to nepetalactone [1] | nepetalactone produced (titer) [2]
1 | B1 | can oxidize nepetalactol to nepetalactone | 
2 | B2 | can oxidize nepetalactol to nepetalactone | 
3 | B3 |  | 93 mg/L
4 | B4 | can oxidize nepetalactol to nepetalactone | 
